Our source for the Kd and EC50 values is the supplement of paper PMC6379048.

pEC50, pKd: −log10 of the molar value.

Series [1] concerns the target T1, LSM7 (UniProt Q9UK45).
T1 sequence: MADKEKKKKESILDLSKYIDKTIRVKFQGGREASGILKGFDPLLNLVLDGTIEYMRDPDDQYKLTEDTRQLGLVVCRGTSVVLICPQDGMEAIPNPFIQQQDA
The experiment in a line: Kd (EC50 corrected by depletion factor). The gist of the method:
(§1)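 HEK293-FT lysate (2.5 mg protein/well) was pre-incubated 1 h at 4°C with free RNA oligos (0 nM to 30 μM), then 30 min at 4°C with the same 5′-amino-C6 oligos coupled to NHS-Sepharose beads. Bound proteins were quantified by label-free LC-MS/MS in three biological replicates and two independent experiments, and normalised to the water control. EC50 came from a four-parameter log-logistic fit; Kd is EC50 times a protein-dependent depletion factor.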

For series [2], the target named is T2, CSTF2 (UniProt P33240).
T2 sequence: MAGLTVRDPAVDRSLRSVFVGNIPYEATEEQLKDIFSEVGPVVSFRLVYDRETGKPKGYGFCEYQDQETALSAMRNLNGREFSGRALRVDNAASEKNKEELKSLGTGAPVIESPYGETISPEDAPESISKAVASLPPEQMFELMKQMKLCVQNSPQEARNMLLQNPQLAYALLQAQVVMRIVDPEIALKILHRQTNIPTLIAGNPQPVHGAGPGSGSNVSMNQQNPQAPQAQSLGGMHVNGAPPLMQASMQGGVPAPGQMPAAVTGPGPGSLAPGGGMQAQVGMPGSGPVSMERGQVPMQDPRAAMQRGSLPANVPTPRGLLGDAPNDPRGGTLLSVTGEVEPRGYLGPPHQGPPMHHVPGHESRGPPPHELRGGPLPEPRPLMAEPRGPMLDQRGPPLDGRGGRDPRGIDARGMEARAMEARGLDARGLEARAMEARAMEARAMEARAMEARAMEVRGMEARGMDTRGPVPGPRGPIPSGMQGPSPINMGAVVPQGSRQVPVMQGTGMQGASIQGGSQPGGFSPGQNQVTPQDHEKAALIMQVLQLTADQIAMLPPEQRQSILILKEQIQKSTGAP
As to the kind of experiment: Kd (EC50 corrected by depletion factor). In outline:
as §1

The target in series [3] is T3, ZNF830 (UniProt Q96NB3).
T3 sequence: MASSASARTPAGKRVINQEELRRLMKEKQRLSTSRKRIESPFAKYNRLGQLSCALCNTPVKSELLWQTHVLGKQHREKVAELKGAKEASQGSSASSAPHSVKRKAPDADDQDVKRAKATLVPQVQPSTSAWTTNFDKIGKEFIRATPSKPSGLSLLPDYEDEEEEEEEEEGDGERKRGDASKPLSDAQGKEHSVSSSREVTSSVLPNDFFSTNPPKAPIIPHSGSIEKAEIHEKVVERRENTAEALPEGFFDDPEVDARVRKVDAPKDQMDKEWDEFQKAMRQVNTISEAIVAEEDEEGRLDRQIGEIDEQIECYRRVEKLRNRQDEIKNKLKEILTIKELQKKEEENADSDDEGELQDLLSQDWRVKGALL
As to the kind of experiment: Kd (EC50 corrected by depletion factor). The gist of the method:
as §1

Series [4] concerns the target XRN1 (UniProt Q8IZH2). As to the kind of experiment: Kd (EC50 corrected by depletion factor). The gist of the method:
as §1

Series [5] has as its target T4, CHERP (UniProt Q8IWX8).
T4 sequence: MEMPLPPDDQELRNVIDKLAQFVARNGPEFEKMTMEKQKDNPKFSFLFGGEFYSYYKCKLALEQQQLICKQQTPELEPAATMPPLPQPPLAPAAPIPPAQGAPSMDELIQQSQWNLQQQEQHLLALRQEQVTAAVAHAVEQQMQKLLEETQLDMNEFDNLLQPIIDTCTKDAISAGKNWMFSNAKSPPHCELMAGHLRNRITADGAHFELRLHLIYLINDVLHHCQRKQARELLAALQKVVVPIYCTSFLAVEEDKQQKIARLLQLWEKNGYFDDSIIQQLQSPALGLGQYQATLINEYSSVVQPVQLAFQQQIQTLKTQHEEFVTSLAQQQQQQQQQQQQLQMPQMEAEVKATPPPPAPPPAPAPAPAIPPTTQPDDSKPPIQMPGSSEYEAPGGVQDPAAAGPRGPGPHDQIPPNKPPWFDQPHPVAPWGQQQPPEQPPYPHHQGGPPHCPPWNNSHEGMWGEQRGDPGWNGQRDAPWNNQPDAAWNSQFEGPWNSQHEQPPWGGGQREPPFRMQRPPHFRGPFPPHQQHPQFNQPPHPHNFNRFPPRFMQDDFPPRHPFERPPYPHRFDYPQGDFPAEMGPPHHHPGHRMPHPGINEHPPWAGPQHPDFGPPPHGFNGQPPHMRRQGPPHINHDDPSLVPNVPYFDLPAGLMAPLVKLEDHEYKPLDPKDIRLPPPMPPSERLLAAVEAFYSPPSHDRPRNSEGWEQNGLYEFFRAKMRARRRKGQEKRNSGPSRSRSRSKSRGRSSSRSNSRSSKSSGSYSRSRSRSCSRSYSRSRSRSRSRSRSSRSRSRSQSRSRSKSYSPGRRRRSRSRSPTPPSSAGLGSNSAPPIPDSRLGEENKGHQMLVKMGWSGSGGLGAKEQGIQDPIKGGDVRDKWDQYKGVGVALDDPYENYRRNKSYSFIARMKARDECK
As to the kind of experiment: EC50 of free RNA motif oligo competing protein binding to immobilised probe. The gist of the method:
as §1

Series [6] deals with SRSF9 (UniProt Q13242). The experiment in a line: Kd (EC50 corrected by depletion factor). The gist of the method: as §1
Chain of SRSF9 (Q13242 whole entry): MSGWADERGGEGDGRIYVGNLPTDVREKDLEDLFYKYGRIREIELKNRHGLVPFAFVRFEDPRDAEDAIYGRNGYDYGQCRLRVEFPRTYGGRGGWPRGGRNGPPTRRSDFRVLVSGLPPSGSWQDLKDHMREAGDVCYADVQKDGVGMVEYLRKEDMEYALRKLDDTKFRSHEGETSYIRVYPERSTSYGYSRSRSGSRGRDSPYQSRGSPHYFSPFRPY

Chain of XRN1 (Q8IZH2 whole entry): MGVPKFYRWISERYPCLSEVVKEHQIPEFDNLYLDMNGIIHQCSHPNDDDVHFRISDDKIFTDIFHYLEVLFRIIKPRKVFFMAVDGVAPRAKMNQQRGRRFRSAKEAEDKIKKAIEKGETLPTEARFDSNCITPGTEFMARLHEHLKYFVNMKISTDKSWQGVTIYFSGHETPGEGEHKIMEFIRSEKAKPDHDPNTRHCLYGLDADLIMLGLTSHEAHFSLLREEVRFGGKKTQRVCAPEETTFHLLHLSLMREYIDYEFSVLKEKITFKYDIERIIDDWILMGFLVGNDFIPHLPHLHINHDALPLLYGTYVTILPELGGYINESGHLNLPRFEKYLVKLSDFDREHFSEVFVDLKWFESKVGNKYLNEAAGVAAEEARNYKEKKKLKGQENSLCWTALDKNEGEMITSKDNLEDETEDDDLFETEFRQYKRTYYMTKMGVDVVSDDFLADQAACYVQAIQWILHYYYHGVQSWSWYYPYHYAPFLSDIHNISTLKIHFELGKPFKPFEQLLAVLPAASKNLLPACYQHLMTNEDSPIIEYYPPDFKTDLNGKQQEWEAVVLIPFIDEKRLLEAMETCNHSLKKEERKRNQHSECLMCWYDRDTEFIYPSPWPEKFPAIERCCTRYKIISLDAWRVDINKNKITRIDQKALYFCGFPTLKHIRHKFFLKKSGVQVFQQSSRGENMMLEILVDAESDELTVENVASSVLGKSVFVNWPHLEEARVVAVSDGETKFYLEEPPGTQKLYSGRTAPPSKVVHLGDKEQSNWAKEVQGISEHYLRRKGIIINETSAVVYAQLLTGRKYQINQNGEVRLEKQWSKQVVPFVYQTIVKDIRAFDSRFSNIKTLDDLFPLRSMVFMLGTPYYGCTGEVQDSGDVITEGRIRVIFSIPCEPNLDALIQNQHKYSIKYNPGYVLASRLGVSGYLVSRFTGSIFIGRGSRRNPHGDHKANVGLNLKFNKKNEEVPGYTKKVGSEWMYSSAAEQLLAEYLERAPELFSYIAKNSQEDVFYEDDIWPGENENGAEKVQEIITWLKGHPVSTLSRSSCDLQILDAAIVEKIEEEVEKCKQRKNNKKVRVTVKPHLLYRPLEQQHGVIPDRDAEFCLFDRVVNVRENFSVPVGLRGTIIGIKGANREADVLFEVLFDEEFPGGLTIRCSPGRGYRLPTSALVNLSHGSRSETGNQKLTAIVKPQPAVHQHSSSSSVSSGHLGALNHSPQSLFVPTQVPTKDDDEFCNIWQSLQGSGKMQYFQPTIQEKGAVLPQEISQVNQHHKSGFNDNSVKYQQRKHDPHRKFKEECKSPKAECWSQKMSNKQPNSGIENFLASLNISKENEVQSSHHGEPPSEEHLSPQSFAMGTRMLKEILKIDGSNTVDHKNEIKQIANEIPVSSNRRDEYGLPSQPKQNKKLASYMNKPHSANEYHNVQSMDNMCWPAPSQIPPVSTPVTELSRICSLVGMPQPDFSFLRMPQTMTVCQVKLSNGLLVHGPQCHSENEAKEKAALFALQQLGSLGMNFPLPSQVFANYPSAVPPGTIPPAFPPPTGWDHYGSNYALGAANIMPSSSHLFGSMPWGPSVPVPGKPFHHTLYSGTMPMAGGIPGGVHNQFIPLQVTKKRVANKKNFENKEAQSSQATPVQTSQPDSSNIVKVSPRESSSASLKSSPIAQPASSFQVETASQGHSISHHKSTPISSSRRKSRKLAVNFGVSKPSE

With AAUAAA, the pKd (in general, the negative decadic logarithm of the Kd, by convention in mol/L) in series [1] was 6.85; in series [2], 8.11; in series [3], 6.42; in series [4], 6.70. Besides, the pEC50 (in general, the negative decadic logarithm of the EC50, by convention in mol/L) in series [5] is 5.98.
In series [6], CUGUCCU showed a pKd of 5.65.
On to UAUUUAU, for which the pKd in series [1] is 6.57; in series [2], 6.54; in series [3], 6.64; in series [6], 5.23; in series [4], 6.97. For the same sequence, in series [5], the pEC50 is 7.45.
